Assay results published in the supplement of paper PMC9170038.

Tested on: MS2 coat protein
Assay: apparent KD of MS2 coat protein; designed switch direction (-1 OFF switch, 1 ON switch): -1; higher = weaker reporter binding
Outline: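 Designed RNA switches sharing common flanks were transcribed on Illumina chips by stalled E. coli RNA polymerase. They were titrated with SNAP-549-labelled MS2 coat protein, from 0.7 or 1.5 nM doubling to 3 µM, in Tris-HCl pH 7.5 buffer with KCl, MgCl2, BSA, DTT, tRNA and Tween-20. Titrations ran without input, with 200 uM small-molecule ligand, or with an oligonucleotide input. The apparent KD of each design is the median over its clusters, after curve-fitting of normalised cluster fluorescence.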

[1] = Eterna round: R95, input ligand: FMN 200 uM
[2] = Eterna round: R95, input ligand: microRNA oligo, concentration not stated
[3] = Eterna round: R95, input ligand: none
[4] = input ligand: microRNA oligo, concentration not stated

## CGUACUGAAGUCAGGAUAUUGUCUCGGAUACGAAACAAGAAGGGACAUGAGGAUCACCCAUGUGGACAGUACGA [Malc #30 mod 6] (puzzle: Brourd's mod of Exclusion 4)
[1]
  apparent KD of MS2 coat protein: 38.3 nM
[2]
  apparent KD of MS2 coat protein: 44 nM
[3]
  apparent KD of MS2 coat protein: 36.7 nM

## UUCCUCGUUGUGAGGAUAUCGUCCUAUUUUUGUUACGAGAAGGCACAUGAGGAUCACCCAUGUUACUUGAUGUU [JR_BMOE4_Sub071] (puzzle: Brourd's mod of Exclusion 4)
[2]
  apparent KD of MS2 coat protein: 21.2 nM

## GCACGGAGUGUAGGAUAUCUGUGCGAUUAGCUCAGAGAAGGACACAUGAGGAUCACCCAUGUGUACCUCAACAUUAAUCCGUGC [Eli exng1 - 075] (Eterna round: R96, puzzle: Exclusion NG 1)
Input ligand: FMN 200 uM
  apparent KD of MS2 coat protein: 10.1 nM
[4]
  apparent KD of MS2 coat protein: 6.62 nM
Input ligand: none
  apparent KD of MS2 coat protein: 10.1 nM

## CAUUAUUAUCGAGGAUAUCCUAUUGAAAUUCUGGGAGAAGGCGGACUCAACAUGAGGAUCACCCAUGUGGGACGGAUGCUAGGA [salish99_exng1_r04_602] (Eterna round: R96, puzzle: Exclusion NG 1)
[4]
  apparent KD of MS2 coat protein: 13.3 nM

## AGUGUGUGGCAGGAUAUUCCGGUCGUUGGUCGGGAAGAAGGGUCUACAUGAGGAUCACCCAUGUGAGCGGUUGA [Ex6 #50] (Eterna round: R97, puzzle: Exclusion 6)
Input ligand: FMN 200 uM
  apparent KD of MS2 coat protein: 489 nM
Input ligand: none
  apparent KD of MS2 coat protein: 379 nM

## AGUUGGCGAGGAUAUACAUGAGGAUCACCCAUGUGAGAGAUAGUAGUGAGGUCGAUUAGUAGAAGGCGCUGACA [Mat X3R4 m13] (Eterna round: R97, puzzle: Exclusion 3)
Input ligand: FMN 200 uM
  apparent KD of MS2 coat protein: 278 nM
Input ligand: none
  apparent KD of MS2 coat protein: 353 nM

## UUUUACUUAGGAUAUACAUUUUUUUAUUUAUUUAUAAUAUUACAUGAGGAUCACCCAUGUAGAAGGGAGAUUUU [My Design] (puzzle: Exclusion 2)
[2]
  apparent KD of MS2 coat protein: 78.1 nM

## UAUUUAUAUGAAGGAUAUACUUAACAUGAGGAUCACCCAUGUGGUGUUGUGAGUGAGUGAGUUUAGUAGAAGGUCAAGUAUUUU [JMF's solution 53] (Eterna round: R96, puzzle: Exclusion NG 2)
Input ligand: FMN 200 uM
  apparent KD of MS2 coat protein: 844 nM
[4]
  apparent KD of MS2 coat protein: 378 nM
Input ligand: none
  apparent KD of MS2 coat protein: 456 nM

## UGUGCGUAUGUGAGGAUAUGCUGGUCCUUGGCUCGGCAGAAGGCACAUGAGGAUCACCCAUGUGGUGUCGUACC [salish99_Bmod_ex4_060] (puzzle: Brourd's mod of Exclusion 4)
[2]
  apparent KD of MS2 coat protein: 33.1 nM

## CAGGAUAGAGGAUAUACAUAGAUACAGAUUCAUGUGAUCCUACAUGAGGAUCACCCAUGUAGAAGGCUAUCCUG [Fiskers Ex 2 - 21] (puzzle: Exclusion 2)
[2]
  apparent KD of MS2 coat protein: 240 nM

## UCCUGACAUGAGGAUCACCCAUGUGAGGAUAUGUGGAUCGAGUCAAAUCUCGUUCCGUGCAGAAGGCACAGGGC [EX1 A.21] (Eterna round: R97, puzzle: Exclusion 1)
Input ligand: FMN 200 uM
  apparent KD of MS2 coat protein: 24.9 nM
Input ligand: none
  apparent KD of MS2 coat protein: 19 nM

## UUGUAUAUCUAUGGGAGUAACAUGAGGAUCACCCAUGUAUGUCUUGUUUUUUGUUCGUCAUAGGCCAAUUGAAUGGU [JR_SV3TOV1_Sub026] (puzzle: Sensor v3, turn-off variant 1)
[1]
  apparent KD of MS2 coat protein: 25.9 nM
[2]
  apparent KD of MS2 coat protein: 34.5 nM
[3]
  apparent KD of MS2 coat protein: 28.9 nM

## UUGAUUGGUGUAGGAUAUGUAUGAGGAUCACCCAUUAAUAAAUUUUAACCACGAGGAUCACCCGUGUAGAAGGACAUUGGUCAA [pwkr exNG2 2xF5 1xFMN.19] (Eterna round: R96, puzzle: Exclusion NG 2)
Input ligand: FMN 200 uM
  apparent KD of MS2 coat protein: 33.1 nM
[4]
  apparent KD of MS2 coat protein: 23.5 nM
Input ligand: none
  apparent KD of MS2 coat protein: 38.4 nM

## CUAGCGAAUGUAGGAUAUCGGACUGUUUCAGUCUGAGAAGGACAUGAGGAUCACCCAUGUAUAGCUACGUGAGUAGCUCGCUAG [JL ENG1 3.91] (Eterna round: R96, puzzle: Exclusion NG 1)
Input ligand: FMN 200 uM
  apparent KD of MS2 coat protein: 43.6 nM
[4]
  apparent KD of MS2 coat protein: 13 nM
Input ligand: none
  apparent KD of MS2 coat protein: 17.1 nM

## UAAUACAAGUAGAGAUUCUACAUGAGGAUCACCCAUGUGCUCGUCUUAUAAAGUACUAUCACGAAAGUGAUAGUACA [Mat - Sensor v3 - turn-off var 1 - Eli Mod - D97] (Eterna round: R96, puzzle: Sensor v3, turn-off variant 1)
Input ligand: FMN 200 uM
  apparent KD of MS2 coat protein: 22.1 nM
[4]
  apparent KD of MS2 coat protein: 124 nM
Input ligand: none
  apparent KD of MS2 coat protein: 22.4 nM

## AAAUCGGUGGAGGAUAUUGUACAGGAAACGGUGCGAGAAGGUUACACAUGAGGAUCACCCAUGUUAAAUAGCGA [EX6 #56] (Eterna round: R97, puzzle: Exclusion 6)
Input ligand: FMN 200 uM
  apparent KD of MS2 coat protein: 25.2 nM
Input ligand: none
  apparent KD of MS2 coat protein: 22.1 nM

## AUAAUAAAGGAGGAUAUCGUAUCGGAAACGAUACGAGAAGGUCUAACAUGAGGAUCACCCAUGUUCCUCAAAUA [Mat - Exclusion 6 - Eli Mod - D49] (puzzle: Exclusion 6)
[2]
  apparent KD of MS2 coat protein: 40.9 nM

## CUGAGUAGAGGAUAUACAUGAGGAUCACCCAUGUAAAGUAGCUUGCGUACAGGCAGAUGUAGAAGGUUAUUCGG [Mod of JL 13 - Jieux - Exclusion 3] (Eterna round: R97, puzzle: Exclusion 3)
Input ligand: FMN 200 uM
  apparent KD of MS2 coat protein: 53.1 nM
Input ligand: none
  apparent KD of MS2 coat protein: 50.9 nM

## UUUUAUAGAGGAUAUGCGUGAAUAUAUAUUCAUGGAAAUUUACAUGAGGAUCACCCAUGUAGAAGGUUGUGUUU [LRO-Excl2-20-mod 090 by JR] (Eterna round: R97, puzzle: Exclusion 2)
Input ligand: FMN 200 uM
  apparent KD of MS2 coat protein: 13.3 nM
Input ligand: none
  apparent KD of MS2 coat protein: 11.9 nM

## AUACCACGAGGAUAUCGUCUAUUUCACAUGAGGAUCACCCAUGUUAUCUUUGUUUUGUUUCGAGAAGGCGUGUUUU [JR_E5_Sub078] (puzzle: Exclusion 5)
[2]
  apparent KD of MS2 coat protein: 28.1 nM

## CCUCUACAUGAGGAUCACCCAUGUCAGGAUAUGCGAAUUUCAUCAAAAGAUGAAAUUUGCAGAAGGGACUAAGC [Omei Ex1 A34] (Eterna round: R97, puzzle: Exclusion 1)
Input ligand: FMN 200 uM
  apparent KD of MS2 coat protein: 282 nM
Input ligand: none
  apparent KD of MS2 coat protein: 246 nM

## GGUACUCAAAGAGUACCAAUACGAACAUGAGGAUCACCCAUGUAGGAUAUGCUACUCAAAGAGUAGCAGAAGGAUAUGAGCCUC [Far Half Aptamer v11] (Eterna round: R96, puzzle: Exclusion NG 3)
Input ligand: FMN 200 uM
  apparent KD of MS2 coat protein: 663 nM
[4]
  apparent KD of MS2 coat protein: 319 nM
Input ligand: none
  apparent KD of MS2 coat protein: 334 nM

## AAAAAACAAGGAUAUACGCAGGAGGGUUGUCUUAAUUUUUGACAUGAGGAUCACCCAUGUAGAAGGUGUUAAAA [JR_Exclusion2_Sub013] (puzzle: Exclusion 2)
[2]
  apparent KD of MS2 coat protein: 220 nM

## AAGAAACAUGAGGAUCACCCAUGUGAGGAUAUGAAAAAGAAAAGAAAAGAAAGAAGAAUCAGAAGGCACAAAGC [salish99-ex1_r3_090] (Eterna round: R96, puzzle: Exclusion 1)
Input ligand: FMN 200 uM
  apparent KD of MS2 coat protein: 24 nM
[4]
  apparent KD of MS2 coat protein: 25.3 nM
Input ligand: none
  apparent KD of MS2 coat protein: 31.2 nM

## GACAAGGUGUAGGAUAUGCUUAGCCUUAAGAAAGCAGAAGGACAAACUUGAGGAUCACCCAAGUGGUCCAAACA [Diraveti] (Eterna round: R97, puzzle: Exclusion 6)
Input ligand: FMN 200 uM
  apparent KD of MS2 coat protein: 65.5 nM
Input ligand: none
  apparent KD of MS2 coat protein: 19.6 nM

## AGCUUUUUGCUCGUCUUAUACAUGAGGAUCACCCAUGUAUUGGACCACAUCGAUAGAUGUGGACCAAGAAGCAUGGG [Omdei Mir OFFv1 C1] (Eterna round: R97, puzzle: Sensor, turn-off variant 1)
Input ligand: FMN 200 uM
  apparent KD of MS2 coat protein: 195 nM
Input ligand: none
  apparent KD of MS2 coat protein: 109 nM

## GGGUUACAUGAGGAUCACCCAUGUGAGGAUAUGAUACUAUGUACUUCGGUACAUAGUAUCAGAAGGCACAUCCC [Ex1-3: 20] (puzzle: Exclusion 1)
[2]
  apparent KD of MS2 coat protein: 31.4 nM

## UUAUAUAGUGUGAGGAUAUGCUGGUCCUUGGAUCAGCAGAAGGCACAUGAGGAUCACCCAUGUAGUUAAUUUUA [JL bmx4 3.03] (puzzle: Brourd's mod of Exclusion 4)
[1]
  apparent KD of MS2 coat protein: 118 nM
[2]
  apparent KD of MS2 coat protein: 25.2 nM
[3]
  apparent KD of MS2 coat protein: 29 nM

## GUGUGCUGAGGAUAUACAGAGGAAGAUAAGAUAAGAUAAUGACAUGAGGAUCACCCAUGUAGAAGGCAGAGUGU [Excluse me!! 15 - Jieux - Exclusion 2] (puzzle: Exclusion 2)
[2]
  apparent KD of MS2 coat protein: 30.5 nM

## CAUUAUUAUCGAGGAUAUCGUAUUGAGAUACUAUGAGAAGGCGGGAUAAACAUGAGGAUCACCCAUGUGAGCCUGAUGCUUGUG [Ex NG1 #37] (Eterna round: R96, puzzle: Exclusion NG 1)
Input ligand: FMN 200 uM
  apparent KD of MS2 coat protein: 17.4 nM
[4]
  apparent KD of MS2 coat protein: 14.3 nM
Input ligand: none
  apparent KD of MS2 coat protein: 19.3 nM

## AAUUAACAUCAGGAUAUGACUAGCUUCGGCUAGUCAGAAGGGAUGACAUGAGGAUCACCCAUGUGAUCAAUUAA [E6/2-A1] (Eterna round: R97, puzzle: Exclusion 6)
Input ligand: FMN 200 uM
  apparent KD of MS2 coat protein: 127 nM
Input ligand: none
  apparent KD of MS2 coat protein: 134 nM

## CCGGAAGUAGAGGAUAUCGUAUCGGAUACGAUACGAGAAGGCUAUACAUGAGGAUCACCCAUGUGUCCUACCGG [Fiskers Ex 6 - 5] (puzzle: Exclusion 6)
[2]
  apparent KD of MS2 coat protein: 21.4 nM

## UGUGCGUAUGUGAGGAUAUGCUGGUCCUUGGAUCGGCAGAAGGCACAUGAGGAUCACCCAUGUGGUGUCGUUCC [salish99_Bmod_ex4_095] (puzzle: Brourd's mod of Exclusion 4)
[2]
  apparent KD of MS2 coat protein: 102 nM
